Sequences and labels used below:
B1: PNUGT29-4: Panax notoginseng glycosyltransferase, 447 amino acids, SEQ ID NO: 45 (protein)
chain: MDIEKGRISIVMLPFLAHGHISPFFELAKHLSKRNCNIFLCSTPINLSSIKNRVSDKDSSASIKLVELHLPSSPDLPPQYHTTNGLPSHLMVPLKNAFETVGPTFSEILKTLDPDLLIYDFNPSWAPEIALSHNIPAVYFLTSAAATSSVALRALKNPGEKYPFPDFYDNSNITPEPPSADKMKLFHDFVACFKRSCDIILIKSFRELEGKYIDLLSTLSKKTLVPVGPLVQDPLGHDEDPKTGHLINWLDKRAESTVVFVCFGSEYFPSNEELEEVAIGLEISMVNFILAVRFLEGEKKGVLPEGFVQRVGDRGLVVEGWAPQARILGHSSTGGFVSHCGWSSIMESVKFGVPVIAMARHLDQPLNAKLAAEVGVGMEVVRDENGKYTREAIAEVIRKVVMEKNGEVIRRKARELSDKMKEKGEQEIGRAVEELVQICKMKKDAQY
modifications: Panax notoginseng
B2: PNUGT29-9: Panax notoginseng glycosyltransferase, 447 amino acids, SEQ ID NO: 55 (protein)
chain: B1 chain with F25L, T389K, D418E, K423T
modifications: Panax notoginseng
B3: PNUGT29-5: Panax notoginseng glycosyltransferase, 447 amino acids, SEQ ID NO: 47 (protein)
chain: B1 chain with K442M
modifications: Panax notoginseng
B4: PNUGT29-8: Panax notoginseng glycosyltransferase, 447 amino acids, SEQ ID NO: 53 (protein)
chain: B1 chain with E373G, T389K, D418E, K423T
modifications: Panax notoginseng
B5: PNUGT29-6: Panax notoginseng glycosyltransferase, 447 amino acids, SEQ ID NO: 49 (protein)
chain: B1 chain with D56G
modifications: Panax notoginseng
B6: PNUGT29-7: Panax notoginseng glycosyltransferase, 447 amino acids, SEQ ID NO: 51 (protein)
chain: B1 chain with L117F
modifications: Panax notoginseng
B7: GT29-4: Ginseng UDP-glycosyltransferase, 446 amino acids, SEQ ID NO: 12 (protein)
chain: MDNQEGRISIALLPFLAHGHISPFFELAKHLSKRNCNIFLCSTPINLSSIKNRISDKDSSASIKLVELHLPSSPDLPPHYHTTNGLPSHLMVPLRNAFETAAPTFSEILKTLNPDLLIYDFNPSWAPEIASSHNIPAVCFIIGGAASFSMSLHSFKNPGEKYPFLDFDDNSNITPEPPSADNMKLLLDFMTCFERSCDIILIKSFRELEGKYFDFYSTLSDKTLVPVGPLVQDPMGHNEDPKTEQFINWLDKRAESTVVFVCFGSEYFLSNEELEEVAIGLEISMVNFIWAVRLIEGEKKGVLPEGFVQRVGDRGLVVEGWAPQARILGHSSTGGFVSHCGWSSITESMKFGVPVIAMARHLDQPLNGKLAAEVGVGMEVVRDENGKYKREGIAEVIRKVVVEKSGEVMRRKARELSEKMKEKGEEEIDRAVEELVQICKKKKDAQ
modifications: misc_feature - GT29-4; Panax ginseng
B8: GT29-5: Ginseng UDP-glycosyltransferase, 446 amino acids, SEQ ID NO: 14 (protein)
chain: MDNQKGRISIVMLPFLAHGHISPFFELAKHLSKRNCNIFLCSTPINLSSIKNRISDKDSSASIKLVELHLPSSPDLPPHYHTTNGLPSHLMVPLRNAFETAAPTFSEILKTLNPDLLIYDFNPSWAPEIASSHNIPAVCFIIGGAASFSMSLHSFKNPGEKYPFLDFDDNSNITPEPPSADNMKLLLDFMTCFERSCDIILIKSFRELEGKYIDLLSTLSDKTLVPVGPLVQDPMGHNEDPKTEQIINWLDKRAESTVVFVCFGSEYFLSNEELEEVAIGLEISMVNFIWAVRLIEGEKKGVLPEGFVQRVGDRGLVVEGWAPQARILGHSSTGGFVSHCGWSSIAESMKFGVPVIAMARHLDQPLNGKLAAEVGVGMEVVRDENGKYKREGIAEVIRKVVVEKSGEVIRRKARELSEKMKEIGEQLIDRAVEELVQICKKKKDEQ
modifications: misc_feature - GT29-5; Panax ginseng

Positions count from the first letter of the chain named.

One data set in a line: In vitro transglycosylation at C-3, Rh2 as glycosyl acceptor, UDP-glucose as donor. The class given is biochemical. To be noted: crude enzyme (E. coli lysate supernatant); TLC, FIG. 13, FIG. 15. The text has this:
(§1) Cell lysate of recombinant E. coli with empty vector pET28a was used as a control.
For B1, the “product formation from Rh2 and UDP-glucose (Rg3)” value (“product formation … (Rg3)” below) is on record as “can catalyze the extension of a glucosyl at the C-3 glycosyl of Rh2 to generate Rg3”.
For the molecule B2, the “product formation … (Rg3)” value is given as “can catalyze the extension of a glucosyl at the C-3 glycosyl of Rh2 to generate Rg3”.
Take B3: the “product formation … (Rg3)” value is listed as “can catalyze the extension of a glucosyl at the C-3 glycosyl of Rh2 to generate Rg3”.
Consider B4, for which the “product formation … (Rg3)” value is “can catalyze the extension of a glucosyl at the C-3 glycosyl of Rh2 to generate Rg3”.
Consider B5, for which the “product formation … (Rg3)” value is recorded as “can catalyze the extension of a glucosyl at the C-3 glycosyl of Rh2 to generate Rg3”.
Regarding B6, the “product formation … (Rg3)” value is on record as “can catalyze the extension of a glucosyl at the C-3 glycosyl of Rh2 to generate Rg3”.

A further data set can be described thus: In vitro transglycosylation at C-20, Rd as glycosyl acceptor, UDP-glucose as donor. The class given is biochemical. To be noted: crude enzyme (E. coli lysate supernatant); TLC/HPLC, FIG. 2, 3, 11.
From the text: as §1
B1: the “product formation from Rd and UDP-glucose (Rb1)” value (shortened to “product formation … (Rb1)”) is “can catalyze the extension of a glucosyl at the C-20 glycosyl of Rd to generate Rb1”.
Consider B2, for which the “product formation … (Rb1)” value was “can catalyze the extension of a glucosyl at the C-20 glycosyl of Rd to generate Rb1”.
For the molecule B3, the “product formation … (Rb1)” value is reported as “can catalyze the extension of a glucosyl at the C-20 glycosyl of Rd to generate Rb1”.
Regarding B4, the “product formation … (Rb1)” value was “can catalyze the extension of a glucosyl at the C-20 glycosyl of Rd to generate Rb1”.
B5: the “product formation … (Rb1)” value is listed as “can catalyze the extension of a glucosyl at the C-20 glycosyl of Rd to generate Rb1”.
Take B6: the “product formation … (Rb1)” value was “can catalyze the extension of a glucosyl at the C-20 glycosyl of Rd to generate Rb1”.

The next data set is described as follows: In vitro transglycosylation at C-6, Rg1 as glycosyl acceptor, UDP-xylose as donor. The class given is biochemical. To be noted: crude enzyme (E. coli lysate supernatant); TLC and HPLC, FIG. 7-9.
In the case of B7, the “product formation from Rg1 and UDP-xylose (notoginsenoside R1)” value is “can catalyze the formation of Notoginsenoside RI”.
Regarding B8, the “product formation from Rg1 and UDP-xylose (notoginsenoside R1)” value is recorded as “can catalyze the formation of Notoginsenoside RI”.

A short description of another data set: In vitro transglycosylation at C-20, CK as glycosyl acceptor, UDP-glucose as donor. The format is biochemical. To be noted: crude enzyme (E. coli lysate supernatant); TLC/HPLC, FIG. 2, 3, 12, 16.
From the text: as §1
As shown in FIG. 16: Protopanaxadiol Ginsenoside CK is used as a glycosyl acceptor, and UDP-glucose is used as a glycosyl donor.
For B1, the “product formation from CK and UDP-glucose (Gypenoside LXXV)” value (from here on “product formation … (Gypenoside LXXV)”) was “can catalyze the extension of a glucosyl at the C-20 glycosyl to generate Gypenoside LXXV”.
Consider B2, for which the “product formation … (Gypenoside LXXV)” value is reported as “can catalyze the extension of a glucosyl at the C-20 glycosyl to generate Gypenoside LXXV”.
On to B3, for which the “product formation … (Gypenoside LXXV)” value is given as “can catalyze the extension of a glucosyl at the C-20 glycosyl to generate Gypenoside LXXV”.
For the molecule B4, the “product formation … (Gypenoside LXXV)” value is “can catalyze the extension of a glucosyl at the C-20 glycosyl to generate Gypenoside LXXV”.
On to B5, for which the “product formation … (Gypenoside LXXV)” value is listed as “can catalyze the extension of a glucosyl at the C-20 glycosyl to generate Gypenoside LXXV”.
Consider B6, for which the “product formation … (Gypenoside LXXV)” value is “can catalyze the extension of a glucosyl at the C-20 glycosyl to generate Gypenoside LXXV”.

The record behind these values is patent US12356911B2, “Group of UDP-glycosyltransferase for catalyzing carbohydrate chain elongation and application thereof” (GSYNBIOT (SHANGHAI) CO., LTD, priority 2017, dated 2025).
